Biological target: narb_syne7 narB (UniProt P39458)
Sequence (P39458 whole entry): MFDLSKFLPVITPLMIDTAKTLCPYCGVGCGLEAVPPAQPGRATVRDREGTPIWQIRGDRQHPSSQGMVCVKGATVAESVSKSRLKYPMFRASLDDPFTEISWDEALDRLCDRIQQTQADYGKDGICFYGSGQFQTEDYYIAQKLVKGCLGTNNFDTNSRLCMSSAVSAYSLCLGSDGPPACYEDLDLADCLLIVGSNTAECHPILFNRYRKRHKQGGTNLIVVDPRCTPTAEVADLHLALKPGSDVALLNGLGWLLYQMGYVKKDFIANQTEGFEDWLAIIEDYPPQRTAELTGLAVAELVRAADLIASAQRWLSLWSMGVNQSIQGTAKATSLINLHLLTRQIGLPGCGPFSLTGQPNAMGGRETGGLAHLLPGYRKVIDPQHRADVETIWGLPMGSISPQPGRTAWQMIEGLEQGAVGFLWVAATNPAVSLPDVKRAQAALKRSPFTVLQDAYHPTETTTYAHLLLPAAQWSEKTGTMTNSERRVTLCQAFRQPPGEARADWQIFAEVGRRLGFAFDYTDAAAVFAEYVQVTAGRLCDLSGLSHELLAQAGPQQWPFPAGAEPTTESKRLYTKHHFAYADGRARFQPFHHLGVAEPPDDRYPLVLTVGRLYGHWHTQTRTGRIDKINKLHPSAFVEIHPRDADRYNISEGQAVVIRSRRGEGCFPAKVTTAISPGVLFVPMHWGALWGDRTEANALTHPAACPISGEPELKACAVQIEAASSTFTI

Chain of Ferredoxin-1 (Anabaena sp. (strain PCC 7119)), P0A3C8 E95K;E96K (P0A3C8 whole entry E95K/E96K): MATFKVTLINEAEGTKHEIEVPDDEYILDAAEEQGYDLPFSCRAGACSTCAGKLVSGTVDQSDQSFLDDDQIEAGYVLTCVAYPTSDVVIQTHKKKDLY
Chain of Ferredoxin-1 (Anabaena sp. (strain PCC 7119)), P0A3C8 E96K (P0A3C8 whole entry E96K): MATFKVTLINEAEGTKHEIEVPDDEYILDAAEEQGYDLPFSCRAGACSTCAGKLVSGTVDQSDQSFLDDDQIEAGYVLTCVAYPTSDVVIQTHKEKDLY
Chain of Ferredoxin-1 (Anabaena sp. (strain PCC 7119)), P0A3C8 E95K (P0A3C8 whole entry E95K): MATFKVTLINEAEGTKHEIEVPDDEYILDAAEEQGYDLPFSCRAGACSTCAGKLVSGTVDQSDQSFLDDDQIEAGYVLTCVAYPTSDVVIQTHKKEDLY

Effect of a mutation on the interaction, decreasing interaction:
Ferredoxin-1 (Anabaena sp. (strain PCC 7119)), P0A3C8 E95K
Ferredoxin-1 (Anabaena sp. (strain PCC 7119)), P0A3C8 E95K;E96K
Ferredoxin-1 (Anabaena sp. (strain PCC 7119)), P0A3C8 E96K

Reference: IntAct's records for PubMed 14871493
